According to US20100003258A1:
Changes are numbered by the printed parent chain.

B1: anti-FGFR3 monoclonal antibody 20B4 (antibody, mouse IgG1, kappa)
heavy: EIQLQQSGPELVKPGASVKVSCKASGYSLTDYNMYWVKQSHGKSLEWIGYIDPYNGGTSYNQKFKGKATLTVDKSSSTAFMHLNSLTSEDSAVYYCARSLGPDFDYWGQGTTLTVSSAKTTPPSVYPLAPGSAAQTNSMVTLGCLVKGYFPEPVTVTWNSGSLSSGVHTFPAVLQSDLYTLSSSVTVPSSTWPSETVTCNVAHPASSTKVDKKIVPRDCGCKPCICTVPEVSSVFIFPPKPKDVLTITLTPKVTCVVVDISKDDPEVQFSWFVDDVEVHTAQTQPREEQFNSTFRSVSELPIMHQDWLNGKEFKCRVNSAAFPAPIEKTISKTKGRPKAPQVYTIPPPKEQMAKDKVSLTCMITDFFPEDITVEWQWNGQPAENYKNTQPIMDTDGSYFVYSKLNVQKSNWEAGNTFTCSVLHEGLHNHHTEKSLSHSPGK
light: QIVLTQSPAIMSASPGEKVTMTCSASSSVNYMHWYQQKSGTSPKRWIYDTSKLASGVPARFSGSGSGTSYSLTISSMEAEDTATYYCQQWNSNPLTFGAGTKLELKRADAAPTVSIFPPSSEQLTSGGASVVCFLNNFYPKDINVKWKIDGSERQNGVLNSWTDQDSKDSTYSMSSTLTLTKDEYERHNSYTCEATHKTSTSPIVKSFNRNEC
B2: anti-FGFR3 monoclonal antibody 15D8 (antibody, mouse IgG1, kappa)
heavy: EIQLQQSGPELVKPGASVKVSCKASGYAFTSYNMYWVKQSHGKSLEWIGYIDPYNGGTSYNQKFKGKATLTVDKSSSTAYMHLNSLTSEDSAVYYCAREGGNYEAWFAYWGQGTLVTVSAAKTTPPSVYPLAPGSAAQTNSMVTLGCLVKGYFPEPVTVTWNSGSLSSGVHTFPAVLQSDLYTLSSSVTVPSSTWPSETVTCNVAHPASSTKVDKKIVPRDCGCKPCICTVPEVSSVFIFPPKPKDVLTITLTPKVTCVVVDISKDDPEVQFSWFVDDVEVHTAQTQPREEQFNSTFRSVSELPIMHQDWLNGKEFKCRVNSAAFPAPIEKTISKTKGRPKAPQVYTIPPPKEQMAKDKVSLTCMITDFFPEDITVEWQWNGQPAENYKNTQPIMDTDGSYFVYSKLNVQKSNWEAGNTFTCSVLHEGLHNHHTEKSLSHSPGK
light: QIVLTQSPALMSASPGEKVTMTCSASSSVSYMYWYQQKPRSSPKPWIYLTSYLASGVPARFSGSGSGTSYSLTISSMEAEDAATYYCQQWSSYPLTFGAGTKLELKRADAAPTVSIFPPSSEQLTSGGASVVCFLNNFYPKDINVKWKIDGSERQNGVLNSWTDQDSKDSTYSMSSTLTLTKDEYERHNSYTCEATHKTSTSPIVKSFNRNEC
B3: anti-FGFR3 monoclonal antibody 2G4 (antibody, mouse IgG1, kappa)
heavy: B2 heavy with S59R, Y60D
light: B2 light with Y52N, Y93N
B4: anti-FGFR3 monoclonal antibody 27H2 (antibody, mouse IgG1, kappa)
heavy: B2 heavy with S59R, L70M
light: B2 light with Y52N, Y93N
B5: anti-FGFR3 monoclonal antibody 4E7 (antibody, mouse IgG1, kappa)
heavy: B2 heavy with S59R
light: B2 light with Y52N, Y93N

Biological target: human FGFR3 IIIc on FDCP-1 cells (FDCP-FGFR3 IIIc #109) (human), P22607
Sequence (P22607 23-806): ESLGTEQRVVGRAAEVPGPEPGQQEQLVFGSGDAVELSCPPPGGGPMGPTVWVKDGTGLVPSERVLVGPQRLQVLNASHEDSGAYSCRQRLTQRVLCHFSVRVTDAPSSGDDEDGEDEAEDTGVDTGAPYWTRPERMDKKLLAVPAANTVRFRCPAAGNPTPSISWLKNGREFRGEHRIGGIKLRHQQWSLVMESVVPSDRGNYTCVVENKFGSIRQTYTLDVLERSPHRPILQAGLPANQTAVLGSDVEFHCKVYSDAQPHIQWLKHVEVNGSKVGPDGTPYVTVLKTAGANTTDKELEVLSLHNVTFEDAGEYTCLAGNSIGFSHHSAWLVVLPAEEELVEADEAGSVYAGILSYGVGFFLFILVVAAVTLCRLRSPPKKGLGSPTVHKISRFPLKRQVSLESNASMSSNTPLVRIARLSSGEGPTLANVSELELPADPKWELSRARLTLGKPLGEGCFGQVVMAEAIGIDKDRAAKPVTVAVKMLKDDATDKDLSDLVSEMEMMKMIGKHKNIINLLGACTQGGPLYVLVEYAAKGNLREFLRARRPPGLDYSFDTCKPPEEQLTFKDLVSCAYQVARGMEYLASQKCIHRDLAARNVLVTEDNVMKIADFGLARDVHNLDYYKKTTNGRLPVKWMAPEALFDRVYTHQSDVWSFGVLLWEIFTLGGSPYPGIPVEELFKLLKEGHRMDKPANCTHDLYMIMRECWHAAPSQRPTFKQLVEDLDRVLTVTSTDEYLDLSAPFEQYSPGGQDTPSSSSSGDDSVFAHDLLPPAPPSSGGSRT
Assay: cell-based or functional assay

FDCP Proliferation IC50, FGFR3 IIIc [nM] | Binder
102 | B1
0.28 | B2
0.5 | B3
0.59 | B4
0.62 | B5

Biological target: FDCP-FGFR3 IIIb and FDCP-FGFR3 IIIc cell lines
Assay: cell-based or functional assay

maximal inhibition of FGF1 induced proliferation of FDCP-FGFR3 cell lines [%] | Binder
40 | B1

Biological target: human FGFR3 IIIc G380R on FDCP-1 cells (FGFR3 IIIc G380R #1) (human), P22607
Sequence (P22607 23-806 G380R): as the sequence (P22607 23-806) above, with G358R counted along it
Assay: cell-based or functional assay

FDCP Proliferation IC50, FGFR3 IIIc G380R [nM] | Binder
3.1 | B2
11.7 | B3
8.8 | B4
3.5 | B5

Biological target: human FGFR3 IIIb on FDCP-1 cells (FDCP-FGFR3 IIIb #122) (human), P22607
Sequence (P22607 23-806): as the sequence (P22607 23-806) above
Assay: cell-based or functional assay

FDCP Proliferation IC50, FGFR3 IIIb [nM] | Binder
1.51 | B1
0.14 | B2
0.63 | B3
0.56 | B4
0.9 | B5
